The binders below were run against CAP256 pIgG (assay: SPR).

Binder | Kd
FcγRIIa R131 (receptor) QAAAPPKAVLKLEPPWINVLQEDSVTLTCQGARSPESDSIQWFHNGNLIPTHTQPSYRFKANNNDSGEYTCQTGQTSLSDPVHLTVLSEWLVLQTPHLEFQEGETIMLRCHSWKDKPLVKVTFFQNGKSQKFSRLDPTFSIPQANHSHSGDYHCTGNIGYTLFSSKPVTITVQVPSMGSSSPMG | 4.6 µM
FcγRIIb (receptor) TPAAPPKAVLKLEPQWINVLQEDSVTLTCRGTHSPESDSIQWFHNGNLIPTHTQPSYRFKANNNDSGEYTCQTGQTSLSDPVHLTVLSEWLVLQTPHLEFQEGETIVLRCHSWKDKPLVKVTFFQNGKSKKFSRSDPNFSIPQANHSHSGDYHCTGNIGYTLYSSKPVTITVQAPSSSPMGIIVAVVTGIAVAAIVAAVVALIYCRKKRISALPGYPECREMGETLPEKPANPTNPDEADKVGAENTITYSLLMHPDALEEPDDQNRI | 5.3 µM
FcγRIIa H131 (receptor) QAAAPPKAVLKLEPPWINVLQEDSVTLTCQGARSPESDSIQWFHNGNLIPTHTQPSYRFKANNNDSGEYTCQTGQTSLSDPVHLTVLSEWLVLQTPHLEFQEGETIMLRCHSWKDKPLVKVTFFQNGKSQKFSHLDPTFSIPQANHSHSGDYHCTGNIGYTLFSSKPVTITVQVPSMGSSSPMGIIVAVVIATAVAAIVAAVVALIYCRKKRISANSTDPVKAAQFEPPGRQMIAIRKRQLEETNNDYETADGGYMTLNPRAPTDDDKNIYLTLPPNDHVNSNN | 5.8 µM
